Measurements: US9260500B2, “Peptide and use thereof” (Takeda Pharmaceutical Company Limited, priority 2009, dated 2016)
Starred links: 1 amine or outer side, 2 acyl side, 3 side chain; linkers in the order of their positions; H or OH if unused. Non-standard residues stand in square brackets, D forms with d. *: point of attachment. X9 = (cis-2,6-dimethylmorpholin-4-yl)carbonyl, C[C@@H]1CN(C(=O)*)C[C@H](C)O1; X3 = ((1S)-1-Carboxy-2-hydroxyethyl)carbamoyl, O=C(O)[C@H](CO)NC(=O)*; X8 = (2-Hydroxy-1-(hydroxymethyl)ethyl)carbamoyl, O=C(NC(CO)CO)*; Ala(piperidin-4-yl) = O=C([C@H](CC1CCN([*:3])CC1)N[*:1])[*:2]; X5 = tetrahydro‑2H‑pyran‑4‑yl‑carbamoyl, O=C(NC1CCOCC1)*; Imidazole4carbonyl = O=C(c1cnc[nH]1)*; hArg = N=C(N)NCCCC[C@H](N)C(=O)O; 4Pal = N[C@@H](Cc1ccncc1)C(=O)O; Cha = N[C@@H](CC1CCCCC1)C(=O)O; Suc = O=C(CCC(=O)[*:2])[*:1]; Iva = CC[C@](C)(N)C(=O)O; Aib = CC(C)(N)C(=O)O

What was measured:
[1] = target: T1, human Y2 receptor (Homo sapiens, UniProt P49146); test: Receptor Binding Assay (RBA) for Human Y2, [125I]-PYY displacement on hY2R/CHO membrane fraction; conditions: IC50 of test compound/IC50 of PYY(3-36) (PYY(3-36) taken as 1)
T1 construct: expressed in transfected cells; membrane fraction
T1 sequence (P49146 1-381): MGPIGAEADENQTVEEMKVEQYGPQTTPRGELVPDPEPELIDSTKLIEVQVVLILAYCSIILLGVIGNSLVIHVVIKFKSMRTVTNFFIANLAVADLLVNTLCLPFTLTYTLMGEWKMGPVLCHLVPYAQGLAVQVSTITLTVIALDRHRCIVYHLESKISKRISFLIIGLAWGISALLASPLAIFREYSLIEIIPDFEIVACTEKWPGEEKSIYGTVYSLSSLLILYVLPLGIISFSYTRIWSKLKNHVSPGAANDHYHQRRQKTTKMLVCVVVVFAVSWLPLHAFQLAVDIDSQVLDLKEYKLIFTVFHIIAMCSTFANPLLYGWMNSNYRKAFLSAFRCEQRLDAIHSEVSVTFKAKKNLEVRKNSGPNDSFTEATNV
In short: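 Read-out is [125I]-PYY displacement from membranes of CHO/dhfr− cells stably transfected with human Y2R. Membranes were obtained by disrupting cells in a buffer of 10 mM NaHCO3, 5 mM EDTA and protease inhibitors.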

[2] = target: T1, human Y2 receptor; test: Human Y2 Receptor G Protein Binding Assay (GBA), [35S]GTPγS; assay type: biochemical; conditions: EC50 of test compound/EC50 of PYY(3-36) (PYY3-36 taken as 1), hY2R/CHO membrane fraction
In short: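 Agonism measured as [35S]GTPγS binding, read by GF/C filtration and scintillation counting after 120 min at room temperature, using human Y2 membranes at 1 μg protein/mL in pH 7.4 Tris/MgCl2/NaCl/GDP buffer. Compound serially diluted 100 μM–1 nM; EC50 normalized to PYY(3-36) (ratio = compound/PYY).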

[3] = test system: male C57EL/6J mice; test: 3-Days Continuous Subcutaneous Administration Test-1 (food intake suppressing activity); assay type: in vivo, mouse; conditions: 0.03 mg/kg/day, subcutaneous Alzet pump, food consumption over 3 days; relative to food intake suppression rate for PYY(3-36) (1 mg/kg/day) taken as 100%
In short: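 Male […] mice, 12-13 weeks, received compound at 0.03 mg/kg/day by subcutaneous osmotic pump (50% DMSO vehicle), housed singly with free food access. Food consumed over 3 days measured; suppression expressed relative to PYY(3-36) (1 mg/kg/day) set as 100%.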

Row | RBA IC50 Ratio [1] | GBA EC50 Ratio [2] | Substance | food intake suppression rate (%) [3]
1 | 0.77 | 0.91 | 4-Imidazolecarbonyl-[D-Pro24, Iva25, Pya(4)26, Cha27,36, Aib28,31, Lys30]-PYY(23-36) (Imidazole4carbonyl-S[dP][Iva][4Pal][Cha][Aib]NK[Aib]TRQR[Cha]-NH2; SMILES CC[C@](C)(NC(=O)[C@H]1CCCN1C(=O)[C@H](CO)NC(=O)c1cnc[nH]1)C(=O)N[C@@H](Cc1ccncc1)C(=O)N[C@@H](CC1CCCCC1)C(=O)NC(C)(C)C(=O)N[C@@H](CC(N)=O)C(=O)N[C@@H](CCCCN)C(=O)NC(C)(C)C(=O)N[C@H](C(=O)N[C@@H](CCCNC(=N)N)C(=O)N[C@@H](CCC(N)=O)C(=O)N[C@@H](CCCNC(=N)N)C(=O)N[C@@H](CC1CCCCC1)C(N)=O)[C@@H](C)O) [compound No. 300] | 35%
2 | 1.8 | 1.3 | Ac-[D-Pro24, Pya(4)26, Cha27,36, Aib28,31, Lys30]-PYY(23-36) [compound No. 138] | 38%
3 | 1.2 | 1.2 | 3-Carboxypropionyl-[D-Pro24, Pya(4)26, Cha27,36, Aib28,31, Lys30]-PYY(24-36) (Suc-[dP]R[4Pal][Cha][Aib]NK[Aib]TRQR[Cha]-NH2; SMILES C[C@@H](O)[C@H](NC(=O)C(C)(C)NC(=O)[C@H](CCCCN)NC(=O)[C@H](CC(N)=O)NC(=O)C(C)(C)NC(=O)[C@H](CC1CCCCC1)NC(=O)[C@H](Cc1ccncc1)NC(=O)[C@H](CCCNC(=N)N)NC(=O)[C@H]1CCCN1C(=O)CCC(=O)O)C(=O)N[C@@H](CCCNC(=N)N)C(=O)N[C@@H](CCC(N)=O)C(=O)N[C@@H](CCCNC(=N)N)C(=O)N[C@@H](CC1CCCCC1)C(N)=O) [compound No. 303] | 20%
4 | 1.76 | 2.0 | [2-Hydroxy-1-(hydroxymethyl)ethyl]carbamoyl-[D-Pro24, Iva25, Pya(4)26, Cha27,36, Aib28,31, Lys30]-PYY(23-36) (X8-S[dP][Iva][4Pal][Cha][Aib]NK[Aib]TRQR[Cha]-NH2; SMILES CC[C@](C)(NC(=O)[C@H]1CCCN1C(=O)[C@H](CO)NC(=O)NC(CO)CO)C(=O)N[C@@H](Cc1ccncc1)C(=O)N[C@@H](CC1CCCCC1)C(=O)NC(C)(C)C(=O)N[C@@H](CC(N)=O)C(=O)N[C@@H](CCCCN)C(=O)NC(C)(C)C(=O)N[C@H](C(=O)N[C@@H](CCCNC(=N)N)C(=O)N[C@@H](CCC(N)=O)C(=O)N[C@@H](CCCNC(=N)N)C(=O)N[C@@H](CC1CCCCC1)C(N)=O)[C@@H](C)O) [compound No. 339] | 51%
5 | 0.91 | 0.65 | (cis-2,6-Dimethylmorpholin-4-yl)carbonyl-[D-Pro24, Pya(4)26, Cha27,36, Aib28,31, Lys30]-PYY(23-36) (X9-S[dP]R[4Pal][Cha][Aib]NK[Aib]TRQR[Cha]-NH2; SMILES C[C@@H]1CN(C(=O)N[C@@H](CO)C(=O)N2CCC[C@@H]2C(=O)N[C@@H](CCCNC(=N)N)C(=O)N[C@@H](Cc2ccncc2)C(=O)N[C@@H](CC2CCCCC2)C(=O)NC(C)(C)C(=O)N[C@@H](CC(N)=O)C(=O)N[C@@H](CCCCN)C(=O)NC(C)(C)C(=O)N[C@H](C(=O)N[C@@H](CCCNC(=N)N)C(=O)N[C@@H](CCC(N)=O)C(=O)N[C@@H](CCCNC(=N)N)C(=O)N[C@@H](CC2CCCCC2)C(N)=O)[C@@H](C)O)C[C@H](C)O1) [compound 269] | 11%
6 | 0.65 | 1.0 | Ac-[D-Pro24, Iva25, Pya(4)26, Cha27,36, Aib28,31, Har30]-PYY(23-36) (Ac-S[dP][Iva][4Pal][Cha][Aib]N[hArg][Aib]TRQR[Cha]-NH2; SMILES CC[C@](C)(NC(=O)[C@H]1CCCN1C(=O)[C@H](CO)NC(C)=O)C(=O)N[C@@H](Cc1ccncc1)C(=O)N[C@@H](CC1CCCCC1)C(=O)NC(C)(C)C(=O)N[C@@H](CC(N)=O)C(=O)N[C@@H](CCCCNC(=N)N)C(=O)NC(C)(C)C(=O)N[C@H](C(=O)N[C@@H](CCCNC(=N)N)C(=O)N[C@@H](CCC(N)=O)C(=O)N[C@@H](CCCNC(=N)N)C(=O)N[C@@H](CC1CCCCC1)C(N)=O)[C@@H](C)O) [compound No. 317] | 49%
7 | 3.5 | 3.0 | [(1S)-1-Carboxy-2-hydroxyethyl]carbamoyl-[D-Pro24, Iva25, Pya(4)26, Cha27,36, Aib28,31, Lys30]-PYY(23-36) (X3-S[dP][Iva][4Pal][Cha][Aib]NK[Aib]TRQR[Cha]-NH2; SMILES CC[C@](C)(NC(=O)[C@H]1CCCN1C(=O)[C@H](CO)NC(=O)N[C@@H](CO)C(=O)O)C(=O)N[C@@H](Cc1ccncc1)C(=O)N[C@@H](CC1CCCCC1)C(=O)NC(C)(C)C(=O)N[C@@H](CC(N)=O)C(=O)N[C@@H](CCCCN)C(=O)NC(C)(C)C(=O)N[C@H](C(=O)N[C@@H](CCCNC(=N)N)C(=O)N[C@@H](CCC(N)=O)C(=O)N[C@@H](CCCNC(=N)N)C(=O)N[C@@H](CC1CCCCC1)C(N)=O)[C@@H](C)O) [compound No. 332] | 32%
8 | 2.9 | 2.9 | Ac-[D-Pro24, Iva25, Pya(4)26, Cha27,36, Aib28,31, Lys30]-PYY(23-36) (Ac-S[dP][Iva][4Pal][Cha][Aib]NK[Aib]TRQR[Cha]-NH2; SMILES CC[C@](C)(NC(=O)[C@H]1CCCN1C(=O)[C@H](CO)NC(C)=O)C(=O)N[C@@H](Cc1ccncc1)C(=O)N[C@@H](CC1CCCCC1)C(=O)NC(C)(C)C(=O)N[C@@H](CC(N)=O)C(=O)N[C@@H](CCCCN)C(=O)NC(C)(C)C(=O)N[C@H](C(=O)N[C@@H](CCCNC(=N)N)C(=O)N[C@@H](CCC(N)=O)C(=O)N[C@@H](CCCNC(=N)N)C(=O)N[C@@H](CC1CCCCC1)C(N)=O)[C@@H](C)O) [compound No. 237] | 46%
9 | 1.2 | 1.5 | Ac-[D-Pro24, Ala(4Pip)26, Cha27,36, Aib28,31, Lys30]-PYY(23-36) (Ac-S[dP]R[Ala(piperidin-4-yl)][Cha][Aib]NK[Aib]TRQR[Cha]-NH2; SMILES CC(=O)N[C@@H](CO)C(=O)N1CCC[C@@H]1C(=O)N[C@@H](CCCNC(=N)N)C(=O)N[C@@H](CC1CCNCC1)C(=O)N[C@@H](CC1CCCCC1)C(=O)NC(C)(C)C(=O)N[C@@H](CC(N)=O)C(=O)N[C@@H](CCCCN)C(=O)NC(C)(C)C(=O)N[C@H](C(=O)N[C@@H](CCCNC(=N)N)C(=O)N[C@@H](CCC(N)=O)C(=O)N[C@@H](CCCNC(=N)N)C(=O)N[C@@H](CC1CCCCC1)C(N)=O)[C@@H](C)O) [compound No. 310] | 12%

Row | Substance | RBA IC50 Ratio [1] | GBA EC50 Ratio [2] | food intake suppression rate (%) [3]
10 | Tetrahydro-2H-pyran-4-yl-carbamoyl-[D-Pro24, Pya(4)26, Cha27,36, Aib28,31, Lys30]-PYY(23-36) (X5-S[dP]R[4Pal][Cha][Aib]NK[Aib]TRQR[Cha]-NH2; ends and bridges not checked) [compound No. 270] | 0.52 | 0.61 | 28%
